The values that follow come from US20250179152A1 (TEXAS A AND M UNIVERSITY SYSTEM, published 2025).

The assay has as its target RBD protein of SARS-COV-1 (SARS-CoV-1, UniProt P59594 306-527). In words: ELISA ('the same binding assay'). On the technique in general: An ELISA detects its analyte on a solid surface through an enzyme-linked reagent.

B1: FSR16m (designed binder)
chain: MGMEQKLISEEDLDGYIPEAPRDGQAYVRKDGEWVLLSTFLGGGGSLQGGGGSLQGSDLGKKLLEAARAGQDDEVRILMANGADVNALDLFGVTPLHLAAERGHLEIVEVLLKNGADVNAGDAFGRTPLHLAALGGHLEIVEVLLKNGADVNACDLYGVTPLHLAAGLGHLEIVEVLLKNGADVNAQDKFGKTAFDISIDNGNEDLAEILQSSSKLAAALEHHHHHH
Take B1: the binding result is on record as “no binding”.
